# Measured values from patent publication US12264201B2, “Bispecific antibody targeting IL-1R1 and NLPR3” (University of Ulster, priority 2018, dated 2025).
# B1: InflaMab: 210 kDa bispecific mouse antibody to IL-1R1 and NLRP3; light chain SEQ ID NO: 57, heavy chain with scFv SEQ ID NO: 59 (protein)
# light: MVSSAQFLGLLLLCFQGTRCDIVMTQSPATLSVTPGDRVSLSCRASQSISDYLSWYQQRSHESPRLIIKYASQSISGIPSRFSGSGSGSDFTLSINSVEPEDVGVYYCQHGHSFPLTFGSGTKLELKRADAAPTVSIFPPSSEQLTSGGASVVCFLNNFYPKDINVKWKIDGSERQNGVLNSWTDQDSKDSTYSMSSTLTLTKDEYERHNSYTCEATHKTSTSPIVKSFNRNEC
# heavy: MGWTLVFLFLLSVTAGVHSQIQLVQSGPELRKPGETVRISCKASGYPFTTAGLQWVQKMSGKGLKWIGWMNTQSEVPKYAEEFKGRIAFSLETAASTAYLQINNLKTEDTATYFCAKSVYFNWRYFDVWGAGTTVTVSSAKTTAPSVYPLAPVCGDTTGSSVTLGCLVKGYFPEPVTLTWNSGSLSSGVHTFPAVLQSDLYTLSSSVTVTSSTWPSQSITCNVAHPASSTKVDKKIEPRGPTIKPCPPCKCPAPNLLGGPSVFIFPPKIKDVLMISLSPIVTCVVVDVSEDDPDVQISWFVNNVEVHTAQTQTHREDYNSTLRVVSALPIQHQDWMSGKEFKCKVNNKDLPAPIERTISKPKGSVRAPQVYVLPPPEEEMTKKQVTLTCMVTDFMPEDIYVEWTNNGKTELNYKNTEPVLDSDGSYFMYSKLRVEKKNWVERNSYSCSVVHEGLHNHHTTKSFSRTPGKGSAGGSGGDSEVQLVESGGGLVKPGGSLKLSCAASGFTFSDYYMYWVRQTPEKRLEWVATISDGGTYTYYPDSVKGRFTISRDNAKNNLYLQMNSLKSEDTAMYYCARGWVSTMVKLLSSFPYWGQGTLVTVSAGGGGSGGGGSGGGGSQAVVTQESALTTSPGETVTLTCRSSTGAVTTSNYANWVQEKPDHLFTGLIGGTNNRAPGVPARFSGSLIGDKAALTITGAQTEDEAIYFCALWYSNYWVFGGGTKLTVLGQPK
# Assays:
# apoE−/− mice [1] = assay: Atherosclerosis: collar-induced carotid artery plaque formation, morphometry; type: in vivo
# Description: Female apoE−/− mice were fed a Western-type diet, containing 0.25% cholesterol and 15% cacao butter (SDS, Sussex, UK) starting two weeks prior to surgery and throughout the experiment. After 2 weeks of diet feeding, carotid artery plaque formation was induced by perivascular collar placement in these mice as described previously (von der Thusen et al, Circulation. 2001; 103(8):1164-1170). […] Through the experiment, mice were weighed weekly and blood samples were obtained via the tail vein. Total cholesterol levels were determined in the serum using enzymatic colorimetric procedures (Roche/Hitachi, Mannheim, Germany). Precipath (Roche/Hitachi) was used as an internal standard. Fasting glucose levels were determined in mice at 2 weeks after starting the treatment with InflaMab and were measured with an Accu-Check glucometer (Roche Diagnostics, Almere, The Netherlands). For lipid profiling, serum samples pooled from 3 mice were used (n=3 samples per group) which were diluted 6 times, and fractionation of plasma lipoproteins was performed using an AKTA-FPLC. In each fraction, the total cholesterol levels were determined by incubation with cholesterol CHOD-PAP Reagent (Roche, Woerden, The Netherlands). Absorbance was measured at 492 nm.
# After 4 weeks of treatment, the mice were anesthetized and in situ perfused, after which the carotid arteries were collected, frozen in OCT compound (TissueTek; Sakura Finetek, The Netherlands) and stored at −80° C. Transverse 10 μm cryosections were prepared on a Leica CM 3050S Cryostat (Leica Instruments) in a proximal direction for (immuno)histochemical analysis.
# Cryosections were routinely stained with hematoxylin (Sigma-Aldrich, Zwijndrecht, The Netherlands) and eosin (Merck Diagnostica, Darmstadt, Germany). Morphometric analysis (Leica Qwin image analysis software) was performed on hematoxylin-eosin stained sections of the carotid arteries. For each carotid, lesion size was quantified every 100 μm, from the first appearance of the lesion proximal to the collar up to complete disappearance of the lesion from the artery. The number of sections analyzed ranged from 5 to 15 sections per mouse, from which average plaque size and plaque volume were calculated. The section with the largest plaque size was annotated as the plaque with maximum stenosis. For the quantification of lesion content in the carotid artery, four consecutive cross-sections containing the largest lesions were used. To determine lipid content, sections were stained with Oil-Red-O (Sigma-Aldrich). Macrophage content of the lesions was assessed using a rat monoclonal MOMA-2 antibody (Serotec, Kidlington, Oxford, UK). Collagen was visualized using a Sirius Red staining (Sigma-Aldrich). Mast cells and neutrophils were visualized by staining of cryosections with naphthol AS-D chloroacetate esterase (Sigma-Aldrich). The number of mast cells and neutrophils was assessed manually in two consecutive cross-sections containing the largest lesions. MOMA-2 and collagen positive areas were quantified by Leica Qwin image analysis software using a Leica DM-RE microscope (Leica Microsystems Inc., Wetzlar, Germany). All morphometric analyses were performed by a blinded operator (T.v.d.H.).
# Atherosclerosis study: InflaMab reduces plaque size in an in vivo apoe−/− model of atherosclerosis—see FIG. 38. After 2 weeks of western type diet feeding in female apoE−/− mice, carotid artery plaque formation was induced by perivascular collar placement. […] Carotid arteries then collected for cyrosections. For each carotid, lesion size was quantitated every 80 μm, from the first appearance of the lesion proximal to the collar up to complete disappearance of the lesion from the artery.
# apoE−/− mice [2] = assay: In vivo LPS challenge, serum IL-1β and TNF-α by ELISA; settings: LPS 50 μg/kg i.v., FIG. 37
# Method: Female apoE−/− mice were fed a Western-type diet containing 0.25% cholesterol and 15% cacao butter (SDS, Sussex, UK) starting 1 week prior to treatment and throughout the experiment. Diet and water were provided ad libitum. After 1 week of diet feeding, mice were injected intraperitoneally with PBS or InflaMab (100 μg or 200 μg) administrated on day 10 and day 14. After 2 weeks of diet and a 1-week treatment mice were challenged intravenously with LPS (50 μg/kg, Salmonella minnesota R595, List Biological Laboratories Inc.) and blood was collected after 0.5, 1, 2 and 4 hours. After 4 hours mice were sacrificed and serum levels of IL-1β and TNF-α were measured by ELISA.
# IL-1beta, but not TNFalpha, is inhibited in vivo via LPS challenge—see FIG. 37. Female apoE−/− mice, after 1 week on WTD, were injected intraperitoneally with PBS or InflaMab (100 μg or 200 μg) administrated on day 10 and day 14. After 2 weeks of diet and a 1-week treatment mice were challenged intravenously with LPS (50 μg/kg) and (a) IL-1β and (b) TNF-α were measured by ELISA.
# THP1 cells = assay: Caspase-1 activation in THP1 cells (FAM-FLICA staining, confocal); type: cell-based
# Method: THP1 cells, for FIG. 34, were cultured in 96-well plates at 100,000cells/200 ul complete media. PMA (100 ug/ml for 72 hours) was used to differentiated THP-1 cells into macrophages. Following 24 hours of rest, differentiated THP1 cells were stimulated with LPS (1 ug/ml) for 3 hours, treated with the IL-1R1/NLRP3 Ab (1 μg/ml) for 30 minutes, followed by ATP (5 mM) for 1 hour. Caspase-1 activation was assessed by staining cells with a non-cytotoxic Fluorescent Labelled Inhibitor of Caspase-1 (FAM-FLICA) and DAPI (nuclear stain). Cells were treated with LPS alone (negative control), LPS+ATP (positive control), mouse IgG2a (1 ug/ml, Ab control), or IL-1r/NLRP3 bi-specific Ab (1 ug/ml, experimental). Representative confocal images are shown for each group. Green=active caspae-1 and blue=Dapi/nuclear stain.
# Internalization of Inflamab—see FIG. 35. THP1 cells, for FIG. 35, were cultured in 96-well plates at 100,000cells/200 ul complete media. Differentiation of THP1 cells was induced by PMA (100 ug/ml for 72 hours). Following 24 hours of rest, differentiated THP1 cells were stimulated with LPS (1 ug/ml) for 3 hours, treated with a pHrodo red labelled IL-1r/NLRP3 Ab (1 ug/ml) for 30 minutes, followed by ATP (5 mM) for 1 hour. The internalization of the Ab was tracked using a pHrodo red labelled bi-specific Ab that only fluoresces when internalized.
molecule,measurement,setting,value
B1,reduction in lesion size,"apoE−/− mice [1]; FIG. 38, significant, versus control",−35%
same,Mouse weight,apoE−/− mice [1]; InflaMab versus control groups,no difference
same,general white blood cell levels (hematology analysis),apoE−/− mice [1]; InflaMab versus control groups,no difference
same,% reduction of plaque size at site of maximal stenosis,apoE−/− mice [1]; InflammAb average versus Control IgG average,30.6164%
same,"Average plaque size, group Average","apoE−/− mice [1]; group average, 10 mice listed",36604 μm^2
same,"Lumen size at site of maximal stenosis, Average","apoE−/− mice [1]; group average, 10 mice listed",11415 μm^2
same,"Media (size) at site of maximal stenosis, Average","apoE−/− mice [1]; group average, 10 mice listed",40997 μm^2
same,"Plaque size at site of maximal stenosis, Average","apoE−/− mice [1]; group average, 10 mice listed",58881 μm^2
same,"total vessel area at site of maximal stenosis, Average","apoE−/− mice [1]; group average, 10 mice listed",111293 μm^2
same,Lumen size (area of the artery still open for blood flow) compared to Control IgG,apoE−/− mice [1]; in words,almost significantly larger
same,Total vessel area (plaque+media+lumen) compared to Control IgG,apoE−/− mice [1]; in words,not different
same,media size (size of the medial smooth muscle layer) compared to Control IgG,"apoE−/− mice [1]; in words, Tables 5 and 6",no effect
same,"lesion size, FIG. 38a","apoE−/− mice [1]; versus control, in words",trend towards a reduction
same,IL-1beta secretion in vivo,"apoE−/− mice [2]; female apoE−/− mice on Western-type diet, 100 μg or 200 μg i.p. day 10 and 14",specifically inhibit
same,secretion of TNFalpha in vivo,"apoE−/− mice [2]; female apoE−/− mice, 100 μg or 200 μg i.p., specificity",no effect
same,caspase-1 activation,"THP1 cells; differentiated THP1, LPS 1 ug/ml 3 h, Ab 1 μg/ml 30 min, ATP 5 mM 1 h, FAM-FLICA, FIG. 34",prevents
same,caspase-1 activation in THP1 cells that have internalized the bi-specific Ab as compared to cells that did not,"THP1 cells; pHrodo red labelled Ab 1 ug/ml 30 min, LPS then ATP, confocal, FIG. 35B",significant reduction
